Like-named read-outs stand apart in the source and are kept apart here.
Molecular target: human prothrombin, P00734
[1] = scale: nmol thrombin/mL/min/µmol prothrombin/µmol activator

Protein | fold more effective than carinactivase-1 (activation rate constants) | fold more effective than carinactivase-2 (activation rate constants) | fold more effective than ecarin (activation rate constants) | fold more effective than notecarin (activation rate constants) | Thrombin generation rate [1] | Thrombin generation rate | N-terminal sequencing of SDS-PAGE bands | percent of S-2238 hydrolysed by the thrombin formed
OsPA (prothrombin activator purified from Oxyuranus scutellatus venom) (protein) chain 1: AQLREYRLAAQLEDWDYNPQPEELSRLSESDLTFKKIVYREYELDFKQEKPRDELSGLLGPTLRGEVGDSLIIYFKNFATQPVSIHPQSAVYNKWSEGSSYSDGTSDVERLDDAVPPGQSFKYVWNITAEIGPKKADPPCLTYAYYSHVNMVRDFNSGLIGALLICKEGSLNADGAQKFFNREYVLMFSVFDESKNWYRKPSLQYTINGFANGTLPDVQACAYDHISWHLIGMSSSPEIFSVHFNGQTLEQNHYKVSTINLVGGASVTANMSVSRTGKWLISSLVAKHLQAGMYGYLNIKDCGNPDTLTRKLSFRERRRIMKWEYFIAAEEITWDYAPEIPSSVDRRYKAQYLDNFSNFIGKKYKKAVFRQYEDSNFTKPTYAIWPKERGILGPVIKAKVRDTVTIVFKNLASRPYSIYVHGVSVSKDAEGAVYPSDPKENITHGKAVEPGQVYTYKWTVLDTDEPTVKDSECITKLYHSAVDMTRDIASGLIGPPLVCKRKALSIRGVQNKADVEQHAVFAVFDENKSWYLEDNIKKYCSNPSSVKKDDPKFYKSNVMYTLNGYASDRTEVWGFHQSEVVEWHLTSVGTVDEIVPVHLSGHTFLSKGKHQDILNLFPMSGESATVTMDNLGTWLLSSWGSCEMSNGMRLRFLDANYDDEDEGNEEEEEDDGDIFADIFNPPEVVIKKEEVPVNFVPDPESDALAKELGLFDDEDNPKQSRSEQTEDDEEQLMIASMLGLRSFKGSVAEEELKHTALALEEDAHASDPRIDSNSAHNSDDIAGRYLRTINRRNKRRYYIAAEEVLWDYSPIGKSQVRSLPAKTTFKKAIFRSYLDDTFQTPSTGGEYEKHLGILGPIIRAEVDDVIEVQFRNLASRPYSLHAHGLLYEKSSEGRSYDDNSPELFKKDDAIMPNGTYTYVWQVPPRSGPTDNTEKCKSWAYYSGVNPEKDIHSGLIGPILICQKGMIDKYNRTIDIREFVLFFMVFDEEKSWYFPKSDKSTCEEKLIGVQSRHTFPAINGIPYQLQGLMMYKDENVHWHLLNMGGPKDVHVVNFHGQTFTEEGREDNQLGVLPLLPGTFASIKMKPSKIGTWLLETEVGENQERGMQALFTVIDKDCKLPMGLASGIIQDSQISASGHVGYWEPKLARLNNTGMFNAWSIIKKEHEHPWIQIDLQRQVVITGIQTQGTVQLLKHSYTVEYFVTYSKDGQNWITFKGRHSKTQMHFEGNSDGTTVKENHIDPPIIARYIRLHPTKFYNTPTFRIELLGCEVEGCSVPLGMESGAIKDSEITASSYKKTWWSSWEPFLARLNLKGRTNAWQPKVNNKDQWLQIDLQHLTKITSIITQGATSMTTSMYVKTFSIHYTDDNSTWKPYLDVRTSMEKVFTGNINSDGHVKHFFNPPILSRFIRIIPKTWNQYIALRIELFGCEVF chain 2: ANSLYEEFRSGNIERECIEERCSKEEAREVFEDDEKTETFWNVYVDGDQCSSNPCHYRGTCKDGIGSYTCTCLSGYEGKNCERVLYKSCRVDNGNCWHFCKPVQNDIQCSCAEGYLLGEDGHSCVAGGNFSCGRNIKTRNKREASLPDFVQSQNAILLKKSDNPSPDIRIVNGMDCKLGECPWQAVLVDEKEDAFCGGTILSPIYVLTAAHCINQTKMISVVVGEINISRKNPGRLLSVDKIYVHQKFVPPKKGYEFYEKFDLVSYDYDIAILQMKTPIQFSENVVPACLPTADFANQVLMKQDFGIVSGFGRIFEKGPQSKTLKVLKVPYVDRHTCMLSSESPITPTMFCAGYDTLPRDACQGDSGGPHITAYRDTHFITGIVSWGEGCAQTGKYGVYTKVSKFILWIKRIMRQKLPSTESSTGRL | more than 200 times then carinactivase-1 | more than 20 times more effective than ecarin and carinactivase-2 | more than 20 times more effective than ecarin and carinactivase-2 | approximately 1000 times more effective than notecarin | 44 |  |  | 
ecarin from Echis carinatus venom (protein) IILGSGNVNDYEVVYPQKVTALPKGAVQQPEQKYEDAMQYEFEVKGEPVVHLEKNKELFSEDYSETHYSSDDREITTNPSVEDHCYYHGRIQNDAESTASISACNGLKGHFKLRGETYFIEPLKIPDSEHAVYKYENIENEDEAPKMCGVTQDNWESDEPIKKTLGLIVPPHERKFEKKFIELVVVVDHSMVTKYNNDSTAIRTWIYELNTVNEIYLPFNIRVALVGLEFWCNGDLINVTSTADDTLHSFGEWRASDLLNRKRHDHAQLLTNVTLDHSTLGITFVYGCKSDRSVELILDYSNITFNMAYIIAHEMGHSLGMLHDTKFCTCGAKPCIMFGKESIPPPKEFSSCSYDQYNKYLLKYNPCILDPPLRKDIASPAVCGNEIWEEGEECDCGSPADCRNPCCDAATCKLKPGAECGNGECCDKCKIRKAGTECRPARDDCVAEHCTGQSAECPRNEFQRNGQPCLNNSGYCYNGDCPIMLNQCIALFSPSATVAQDSCFQRNLQGSYYGYCTKEIGYYGRFPCAPQDVKCGRLYCLDNSFKKNMRCKNDYSYADENKGIVEPGTKCEDGKVCINRKCVDVNTAY |  |  |  |  |  | 2.76 |  | 
notecarin from Notechis scutatus venom (protein) SNSLFEEIRPGNIERECIEEKCSKEEAREVFEDNEKTETFWNVYVDGDQCSSNPCHYRGTCKDGIGSYTCTCLPNYEGKNCEKVLFKSCRAFNGNCWHFCKRVQSETQCSCAESYLLGVDGHSCVAEGDFSCGRNIKARNKREASLPDFVQSQKATVLKKSDNPSPDIRIVNGMDCKLGECPWQAVLINEKGEVFCGGTILSPIHVLTAAHCINQTKSVSVIVGEIDISRKETRRLLSVDKIYVHKKFVPPNSYYQNIDRFAYDYDIAIIRMKTPIQFSENVVPACLPTADFAKEVLMKQDSGIVSGFGRTQSIGYTSNILKVITVPYVDRHTCMLSSNFRITQNMFCAGYDTLPQDACQGDSGGPHITAYGDTHFVTGIISWGEGCARKGKYGVYTKVSNFIPWIKKIMSLK |  |  |  |  | 0.043 |  | confirmed conversion of prothrombin to alpha-thrombin by PtPA and notecarin | then carinactivase-1 and lastly notecarin (<1%) being the least efficient
